From PMC4197010 (Journal of controlled release : official journal of the …, 2014)
Like-named read-outs stand apart in the source and are kept apart here.

Tests used:
[1] = biological target: T1, chimera leptin receptor (ObR-Fc) (UniProt P48356 22-839); test: SPR
T1 sequence (looked up): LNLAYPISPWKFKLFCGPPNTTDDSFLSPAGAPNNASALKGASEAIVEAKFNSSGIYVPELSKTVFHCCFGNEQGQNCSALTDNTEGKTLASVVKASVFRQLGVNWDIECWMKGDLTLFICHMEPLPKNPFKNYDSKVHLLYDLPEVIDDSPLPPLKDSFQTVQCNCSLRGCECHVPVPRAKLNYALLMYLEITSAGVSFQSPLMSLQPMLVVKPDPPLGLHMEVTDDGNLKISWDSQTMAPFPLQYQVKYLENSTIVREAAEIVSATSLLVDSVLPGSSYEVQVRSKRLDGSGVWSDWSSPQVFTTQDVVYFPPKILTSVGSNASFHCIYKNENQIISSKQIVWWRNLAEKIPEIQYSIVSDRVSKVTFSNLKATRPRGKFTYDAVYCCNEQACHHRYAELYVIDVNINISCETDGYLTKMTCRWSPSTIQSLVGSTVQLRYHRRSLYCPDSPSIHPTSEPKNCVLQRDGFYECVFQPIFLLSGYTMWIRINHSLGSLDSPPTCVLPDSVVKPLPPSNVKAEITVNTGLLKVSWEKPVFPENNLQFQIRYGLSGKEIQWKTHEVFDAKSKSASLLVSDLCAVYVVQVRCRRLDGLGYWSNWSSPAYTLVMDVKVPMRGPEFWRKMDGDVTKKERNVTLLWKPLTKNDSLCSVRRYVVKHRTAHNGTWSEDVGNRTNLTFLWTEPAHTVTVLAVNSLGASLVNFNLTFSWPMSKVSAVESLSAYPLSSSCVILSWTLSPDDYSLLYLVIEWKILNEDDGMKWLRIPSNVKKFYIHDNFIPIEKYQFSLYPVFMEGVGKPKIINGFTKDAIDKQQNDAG

[2] = biological target: T1, chimera leptin receptor (ObR-Fc); test: SPR; remark: listed apart in the source

B1: Mouse recombinant leptin (ligand, UniProt P41160 22-167, looked up)
chain: VPIQKVQDDTKTLIKTIVTRINDISHTQSVSAKQRVTGLDFIPGLHPILSLSKMDQTLAVYQQVLTSLPSQNVLQIANDLENLRDLLHLLAFSKSCSLPQTSGLQKPESLDGVLEASLYSTEVVALSRLQGSLQDILQQLDVSPEC
Kd [1]: 0.1 nM | Kd [2]: 0.337 nM
